Patent publication US20030148958A1 (PROCTER AND GAMBLE, published 2003)
Positions count from the first letter of the chain named. Ends that are not written are not given here.

T1: CRF2R
T1 sequence (Q13324 whole entry, species assumed, looked up): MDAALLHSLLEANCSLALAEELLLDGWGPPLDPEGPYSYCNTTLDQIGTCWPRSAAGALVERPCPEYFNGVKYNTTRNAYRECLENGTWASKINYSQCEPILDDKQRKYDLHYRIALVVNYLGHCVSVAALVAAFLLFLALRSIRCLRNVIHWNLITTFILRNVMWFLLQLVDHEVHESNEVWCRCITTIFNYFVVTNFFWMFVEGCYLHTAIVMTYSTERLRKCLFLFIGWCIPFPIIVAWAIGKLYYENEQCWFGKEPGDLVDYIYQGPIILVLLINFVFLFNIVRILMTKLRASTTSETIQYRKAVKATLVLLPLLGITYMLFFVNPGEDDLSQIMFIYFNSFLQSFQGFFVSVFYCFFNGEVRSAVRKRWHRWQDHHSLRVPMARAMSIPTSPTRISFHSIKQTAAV

B1: SEQ ID NO 349 (peptide)
peptide: ZGPPISIDLPLQLLRKVIEIEKQEKEKQQAANNALLLATI
modifications: C-terminal amide
B2: SEQ ID NO 377 (peptide)
peptide: B1 peptide with L9V, L11Y, Q12H, L35R, T39R
modifications: C-terminal amide
B3: SEQ ID NO 364 (peptide)
peptide: B1 peptide with L11F, V17A
modifications: C-terminal amide
B4: SEQ ID NO 383 (peptide)
peptide: B1 peptide with L9V, L11F, L35R, T39R
modifications: C-terminal amide
B5: SEQ ID NO 365 (peptide)
peptide: B1 peptide with L11F, V17A, A38D
modifications: C-terminal amide
B6: SEQ ID NO 374 (peptide)
peptide: B1 peptide with L9V, L11Y, L35R, A38D
modifications: C-terminal amide
B7: SEQ ID NO 352 (peptide)
peptide: B1 peptide with L11F
modifications: C-terminal amide
B8: SEQ ID NO 380 (peptide)
peptide: B1 peptide with L9V, L35R, A38D
modifications: C-terminal amide
B9: SEQ ID NO 355 (peptide)
peptide: B1 peptide with P10S, Q12E, V17M, A34R, A38D
modifications: C-terminal amide
B10: SEQ ID NO 376 (peptide)
peptide: B1 peptide with L9V, L11Y, Q12H, L35R, A38D
modifications: C-terminal amide
B11: SEQ ID NO 375 (peptide)
peptide: B1 peptide with L9V, L11Y, L35R, T39R
modifications: C-terminal amide
B12: SEQ ID NO 373 (peptide)
peptide: B1 peptide with L9V, L11Y, Q12W, L35R, T39R
modifications: C-terminal amide
B13: SEQ ID NO 372 (peptide)
peptide: B1 peptide with L9V, L11Y, Q12W, L35R, A38D
modifications: C-terminal amide
B14: SEQ ID NO 381 (peptide)
peptide: B1 peptide with L9V, L35R, T39R
modifications: C-terminal amide
B15: SEQ ID NO 378 (peptide)
peptide: B1 peptide with L9V, L11Y, Q12Y, L35R, T39R
modifications: C-terminal amide
B16: SEQ ID NO 379 (peptide)
peptide: B1 peptide with L9V, L11I, Q12Y, L35R, T39R
modifications: C-terminal amide
B17: SEQ ID NO 362 (peptide)
peptide: B1 peptide with L11F, V17I
modifications: C-terminal amide
B18: SEQ ID NO 382 (peptide)
peptide: B1 peptide with L9V, L11F, L35R, A38D
modifications: C-terminal amide
B19: SEQ ID NO 359 (peptide)
peptide: B1 peptide with L11F, K16E
modifications: C-terminal amide
B20: SEQ ID NO 357 (peptide)
peptide: B1 peptide with L11F, V17L
modifications: C-terminal amide
B21: SEQ ID NO 361 (peptide)
peptide: B1 peptide with L11F, K16V, V17L
modifications: C-terminal amide
B22: SEQ ID NO 350 (peptide)
peptide: B1 peptide with L11F, A38D
modifications: C-terminal amide
B23: SEQ ID NO 360 (peptide)
peptide: B1 peptide with L11F, K16L, V17L
modifications: C-terminal amide
B24: SEQ ID NO 368 (peptide)
peptide: IVLSLDVPIGLLQILLEQARARAAREQATTNARILARVM-NH2
B25: SEQ ID NO 370 (peptide)
peptide: IVLSLDVSIGLLQILLEQARARAAREQATTNARILARV-NH2
B26: SEQ ID NO 348 (peptide)
peptide: PSLSIDLPLLLLRTLLELEKTQSQRERAEQNAIIFASV-NH2
B27: SEQ ID NO 356 (peptide)
peptide: IVLSLDVPIGLLQILLEQARARAAREQATTNARILARVM-NH2
B28: SEQ ID NO 354 (peptide)
peptide: IVLSLDVPIGLLQILLEQARARAAREQATTNARILARV-NH2
B29: SEQ ID NO 358 (peptide)
peptide: ZGPPISIDLPFQLLRILIEIEKQEKEKQQAANNALLLAT
modifications: C-terminal amide
B30: SEQ ID NO 369 (peptide)
peptide: IVLSLDVPIGLLQILLEQARHAHAHAHAHAQAHILAHV-NH2
B31: SEQ ID NO 371 (peptide)
peptide: IVLSLDVPIHLLQILLEQARARAAREQATTNARILARV-NH2
B32: SEQ ID NO 351 (peptide)
peptide: ZGPPISIDLPFQLLRKVIEIEKQEKEKQQATTNARLLDRV
modifications: C-terminal amide
B33: SEQ ID NO 363 (peptide)
peptide: B32 peptide with V17A
modifications: C-terminal amide
B34: SEQ ID NO 353 (peptide)
peptide: B32 peptide with F11L, Q12Y, V17M, L36I, D38A
modifications: C-terminal amide
B35: SEQ ID NO 346 (peptide)
peptide: DNPSLSIDLPLLLLRTLLELEKTQSQRERAEQNAIIFASV-NH2
B36: SEQ ID NO 345 (peptide)
peptide: DNPSLSIDLPLILLRTLLELEKTQSQRERAEQNAIIFASV-NH2
B37: SEQ ID NO 366 (peptide)
peptide: IVLSLDVPIGLLQILLEKAAAEAEAAAKAAQEQILAHV-NH2
B38: SEQ ID NO 367 (peptide)
peptide: IVLSLDVPIGLLQILLEQARHAAAHAAAHAQAHILAHV-NH2
B39: SEQ ID NO 347 (peptide)
peptide: DNPSLSIDLPLLLLRTLLELEKTQSQRERAEQNAIIFASV-NH2

Biological target: T1, CRF2R
Assay: cell-based or functional assay
Wherever CRF1R Emax % is given: reference of the scale not given here.
Wherever CRF2R Emax % is given: reference of the scale not given here.

| CRF2R EC50 | CRF2R Emax % | Binder |
| --- | --- | --- |
| 13.8 nM | 100% | B1 |
| 19.2 nM | 83% | B2 |
| 13.2 nM | 100% | B3 |
| 9.31 nM | 96% | B4 |
| 23.4 nM | 94% | B5 |
| 15.8 nM | 91% | B6 |
| 8.26 nM | 83.7% | B7 |
| 19 nM | 100% | B8 |
| 6.03 nM | 95% | B9 |
| 52.5 nM | 100% | B10 |
| 11.5 nM | 100% | B11 |
| 11.5 nM | 100% | B12 |
| 14.2 nM | 100% | B13 |
| 12.7 nM | 99% | B14 |
| 14.9 nM | 100% | B15 |
| 70.5 nM | 94% | B16 |
| 4.39 nM | 100% | B17 |
| 39.5 nM | 100% | B18 |
| 23.1 nM | 100% | B19 |
| 6.44 nM | 100% | B20 |

| CRF2R EC50 | CRF2R Emax % | Binder |
| --- | --- | --- |
| 6.37 nM | 99% | B21 |
| 11.6 nM | 98.1% | B22 |
| 6.12 nM | 93% | B23 |
| 50.4 nM | – | B24 |
| 51 nM | 75% | B25 |
| 5.77 nM | – | B26 |
| 83 nM | – | B27 |
| 6.48 nM | 100% | B28 |
| 5.56 nM | 100% | B29 |
| 100 nM | 18% | B30 |
| 6.62 nM | 97% | B31 |
| 12.9 nM | 97.4% | B32 |
| 25.1 nM | 100% | B33 |
| 4.75 nM | 89.9% | B34 |
| 8.48 nM | – | B35 |
| 39.7 nM | 100% | B36 |
| 100 nM | 46% | B37 |
| 100 nM | 18% | B38 |
| 22.4 nM | – | B39 |

Biological target: CRF1R
Assay: cell-based or functional assay

| CRF1R EC50 | CRF1R Emax % | Binder |
| --- | --- | --- |
| 1000 nM | 44.2% | B1 |
| 1000 nM | 25% | B2 |
| 1000 nM | 27% | B3 |
| 1000 nM | 55% | B4 |
| 1000 nM | 21% | B5 |
| 1000 nM | 11% | B6 |
| 780 nM | 82.6% | B7 |
| 1000 nM | 16% | B8 |
| 18 nM | 100% | B9 |
| 1000 nM | 8% | B10 |
| 1000 nM | 22% | B11 |
| 1000 nM | 9% | B12 |
| 1000 nM | 13% | B13 |
| 1000 nM | 27% | B14 |
| 1000 nM | 36% | B15 |
| 1000 nM | 8% | B16 |
| 386 nM | 100% | B17 |
| 1000 nM | 8% | B18 |
| 230 nM | 100% | B19 |
| 331 nM | 100% | B20 |

| CRF1R EC50 | CRF1R Emax % | Binder |
| --- | --- | --- |
| 149 nM | 100% | B21 |
| 1000 nM | 48% | B22 |
| 157 nM | 100% | B23 |
| 1000 nM | – | B24 |
| 1000 nM | 33% | B25 |
| 630 nM | – | B26 |
| 1000 nM | – | B27 |
| 1000 nM | 13.4% | B28 |
| 99 nM | 100% | B29 |
| 1000 nM | 4% | B30 |
| 1000 nM | 22% | B31 |
| 1000 nM | 85.7% | B32 |
| 1000 nM | 20% | B33 |
| 230 nM | 92.2% | B34 |
| 1000 nM | – | B35 |
| 1000 nM | 18.8% | B36 |
| 1000 nM | 9% | B37 |
| 1000 nM | 6% | B38 |
| 1000 nM | – | B39 |
